B1: nanobody hCD11bNb1 (His-tagged) N101A (protein)
chain: QVQLVETGGGLVQAGGSLRLSCAASGNINSFNAMGWFRQAPGKQRELVAAITFGGRTNYADSVKGRFTISRDNTKGSVYLQMNSLKPEDTAVYYCAASEANLLTGVWHYWGRGTQVTVSS
B2: nanobody hCD11bNb1 (His-tagged) F32A (protein)
chain: B1 chain with F31A, A100N
B3: nanobody hCD11bNb1 (His-tagged) F54A (protein)
chain: B1 chain with F53A, A100N
B4: nanobody hCD11bNb1 (His-tagged) I29A (protein)
chain: B1 chain with I28A, A100N
B5: nanobody hCD11bNb1 (His-tagged) N30A (protein)
chain: B1 chain with N29A, A100N

Positions count from the first letter of the chain named. Names may count otherwise.

This experiment deals with human integrin αMβ2 headpiece fragment, P11215;P05107. Nature of the experiment: BLI competition assay. The following applies: chain shown with the change; 20 nM αMβ2 HP preincubated with 10-fold molar excess of nanobody variant; immobilized biotinylated avi-tagged WT hCD11bNb1; signal is HP binding to the sensor …; parent: est. 0.31; read off a plot.
B1: the response is 1.2 nm. The result for B2 reads 1.1 nm; that for B3, 1.2 nm; that for B4, 0.45 nm. As to B5, the response turned out to be 0.98 nm.
